From publication PMC7262597

Experiments:
Experiment in all cases: GST pull-down (autoradiography, quantified)
[1] = molecular target: radiolabeled myc-Sequoia-WT; details: percentage binding relative to 10% of the input; 3 independent experiments; parent: est. 25; read off a plot
GST-Atg8a-WT = GST-Atg8a-WT (UniProt Q9W2S2); details: parent: est. 25, read off a plot
[2] = molecular target: GST-Atg8a-LDS mutant (Y49A) (UniProt Q9W2S2); details: parent: est. 25, read off a plot
GST-Atg8a K47Q = GST-Atg8a K47Q (UniProt Q9W2S2); details: percentage binding relative to 10% of the input; 3 independent experiments; parent: est. 25; read off a plot
GST-Atg8a K46Q = GST-Atg8a K46Q (UniProt Q9W2S2); details: percentage binding relative to 10% of the input; 3 independent experiments; parent: est. 25; read off a plot
GST-Atg8a K48Q = GST-Atg8a K48Q (UniProt Q9W2S2); details: percentage binding relative to 10% of the input; 3 independent experiments; parent: est. 25; read off a plot
GST-Atg8a K46Q Y49A = details: percentage binding relative to 10% of the input; 3 independent experiments; parent: est. 25; read off a plot
[3] = molecular target: radiolabeled GFP-Sequoia-WT; details: parent: est. 25; read off a plot
[4] = percentage binding relative to 10% of the input, 3 independent experiments

Chain of GST-Atg8a-LDS mutant (Y49A) (Q9W2S2 entry or part of it Y49A | Y49A): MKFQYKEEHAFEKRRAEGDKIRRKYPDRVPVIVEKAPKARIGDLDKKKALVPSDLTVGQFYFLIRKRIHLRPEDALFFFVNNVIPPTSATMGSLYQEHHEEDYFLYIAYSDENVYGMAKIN
Chain of GST-Atg8a-WT (Q9W2S2 entry or part of it): as the sequence (Q9W2S2 entry or part of it Y49A | Y49A) above, with A49Y counted along it
Chain of GST-Atg8a K46Q (Q9W2S2 entry or part of it K46Q | K46Q): as the sequence (Q9W2S2 entry or part of it Y49A | Y49A) above, with K46Q, A49Y counted along it
Chain of GST-Atg8a K47Q (Q9W2S2 entry or part of it K47Q | K47Q): as the sequence (Q9W2S2 entry or part of it Y49A | Y49A) above, with K47Q, A49Y counted along it
Chain of GST-Atg8a K48Q (Q9W2S2 entry or part of it K48Q | K48Q): as the sequence (Q9W2S2 entry or part of it Y49A | Y49A) above, with K48Q, A49Y counted along it

Question: Which response [1] does the source give for GST-Atg8a-WT (from UniProt Q9W2S2) K48Q here?
Answer: 12 % Binding

Question: For GST-Atg8a-WT (from UniProt Q9W2S2) K46Q, which response [1] is on record?
Answer: 25 % Binding

Question: For “radiolabeled myc-Sequoia-WT Y313A; I316A”, which response (GST-Atg8a-WT; [4]) is on record?
Answer: 14 % Binding

Question: For “radiolabeled GFP-Sequoia-WT Y313A; I316A”, which response (GST-Atg8a-WT) is on record?
Answer: 14 % of binding

Question: “m11; m1 Sequoia:Y313A; Sequoia:I316A; Atg8a:Y49A” was tested. Which response [2, 4] did it give?
Answer: 2.9 % Binding

Question: Which response (GST-Atg8a K47Q) does the source give for “m11; m1 Sequoia:Y313A; Sequoia:I316A; Atg8a:K47Q” here?
Answer: 12 % Binding

Question: Which response (GST-Atg8a K46Q) does the source give for “m11; m1 Sequoia:Y313A; Sequoia:I316A; Atg8a:K46Q” here?
Answer: 18 % Binding

Question: Which response [1] does the source give for “GST-Atg8a-WT (from UniProt Q9W2S2) K46Q; Y49A” here?
Answer: 3.6 % Binding

Question: With “m11; m1 Sequoia:Y313A; Sequoia:I316A; Atg8a:K48Q” as the substance, how does the response (GST-Atg8a K48Q) read?
Answer: 8 % Binding

Question: Which response (GST-Atg8a K46Q Y49A) does the source give for “m11; m1 Sequoia:Y313A; Sequoia:I316A; Atg8a:K46Q; Atg8a:Y49A” here?
Answer: 3.2 % Binding

Question: For GST-Atg8a-WT (from UniProt Q9W2S2) Y49A, which response [3] is on record?
Answer: 8 % of binding

Question: And the response [1]?
Answer: 2.7 % Binding

Question: Which response [2] does the source give for “m9; m1 Sequoia:Y313A; Sequoia:I316A; Atg8a:Y49A” here?
Answer: 5.6 % of binding

Question: How did the response [1] turn out when GST-Atg8a-WT (from UniProt Q9W2S2) K47Q was run?
Answer: 24 % Binding
